Holding throughout (details): both partners purified
In one assay the target is T1, His6-TF-SUMO-OsCOI1b (rice, UniProt Q60EH4 1-597).
T1 construct: also called His6-OsCOI1b
T1 sequence (looked up): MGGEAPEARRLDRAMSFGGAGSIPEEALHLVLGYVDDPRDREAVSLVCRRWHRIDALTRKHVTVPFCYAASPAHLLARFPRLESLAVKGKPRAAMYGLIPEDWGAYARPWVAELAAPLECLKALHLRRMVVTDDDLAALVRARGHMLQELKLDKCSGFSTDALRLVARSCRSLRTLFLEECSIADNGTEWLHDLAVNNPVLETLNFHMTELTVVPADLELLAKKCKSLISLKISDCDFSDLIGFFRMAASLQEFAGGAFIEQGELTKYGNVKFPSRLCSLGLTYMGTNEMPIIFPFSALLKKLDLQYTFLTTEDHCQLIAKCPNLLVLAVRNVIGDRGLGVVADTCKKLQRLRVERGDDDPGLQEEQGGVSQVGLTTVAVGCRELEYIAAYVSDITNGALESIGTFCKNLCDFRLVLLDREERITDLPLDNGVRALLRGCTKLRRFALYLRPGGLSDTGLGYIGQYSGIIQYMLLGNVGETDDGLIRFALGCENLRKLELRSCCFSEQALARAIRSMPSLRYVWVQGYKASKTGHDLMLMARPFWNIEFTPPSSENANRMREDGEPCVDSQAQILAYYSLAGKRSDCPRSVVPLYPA
Put plainly: MST.

Assay [1] addresses T2, His6-TF-SUMO-tagged OsCOI1b^R10A (rice, UniProt Q60EH4 1-597, R10A).
T2 sequence (looked up): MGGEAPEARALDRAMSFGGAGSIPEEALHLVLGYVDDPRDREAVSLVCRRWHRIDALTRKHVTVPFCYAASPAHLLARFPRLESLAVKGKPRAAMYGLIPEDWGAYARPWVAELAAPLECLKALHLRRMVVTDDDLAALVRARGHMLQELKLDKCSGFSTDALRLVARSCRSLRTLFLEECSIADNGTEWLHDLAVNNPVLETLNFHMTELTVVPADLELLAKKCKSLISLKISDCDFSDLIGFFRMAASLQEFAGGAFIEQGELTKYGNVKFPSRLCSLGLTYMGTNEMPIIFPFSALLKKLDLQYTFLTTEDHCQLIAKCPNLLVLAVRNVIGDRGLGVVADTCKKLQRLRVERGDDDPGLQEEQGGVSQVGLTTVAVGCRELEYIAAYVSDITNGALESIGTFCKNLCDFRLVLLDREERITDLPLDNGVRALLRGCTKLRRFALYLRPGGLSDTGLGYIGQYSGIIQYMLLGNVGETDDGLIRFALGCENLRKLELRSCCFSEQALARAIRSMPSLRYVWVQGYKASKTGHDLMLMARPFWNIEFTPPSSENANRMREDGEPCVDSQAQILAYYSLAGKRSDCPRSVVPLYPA
Briefly: pull-down.

The target of assay [2] is T3, His6-TF-SUMO-tagged OsCOI1b^R13A (rice, UniProt Q60EH4 1-597, R13A).
T3 sequence (looked up): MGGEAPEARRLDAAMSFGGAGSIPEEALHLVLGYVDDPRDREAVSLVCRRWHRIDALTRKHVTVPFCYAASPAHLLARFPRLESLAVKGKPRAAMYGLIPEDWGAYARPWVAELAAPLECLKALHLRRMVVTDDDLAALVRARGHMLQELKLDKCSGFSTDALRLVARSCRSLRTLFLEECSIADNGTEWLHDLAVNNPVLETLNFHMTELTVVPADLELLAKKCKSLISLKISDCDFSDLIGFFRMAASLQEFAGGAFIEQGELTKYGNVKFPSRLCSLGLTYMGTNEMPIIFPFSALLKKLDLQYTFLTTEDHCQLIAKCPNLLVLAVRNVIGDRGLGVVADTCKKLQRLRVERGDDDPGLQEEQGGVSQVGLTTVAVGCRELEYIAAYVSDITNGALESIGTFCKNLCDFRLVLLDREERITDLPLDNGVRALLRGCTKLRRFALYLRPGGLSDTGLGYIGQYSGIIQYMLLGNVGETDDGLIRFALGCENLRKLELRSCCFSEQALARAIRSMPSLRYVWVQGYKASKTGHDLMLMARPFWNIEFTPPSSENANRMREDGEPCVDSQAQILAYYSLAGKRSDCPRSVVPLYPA
Put plainly: pull-down.

Assay [3] addresses T4, His6-TF-SUMO-tagged OsCOI1b^R9A (rice, UniProt Q60EH4 1-597, R9A).
T4 sequence (looked up): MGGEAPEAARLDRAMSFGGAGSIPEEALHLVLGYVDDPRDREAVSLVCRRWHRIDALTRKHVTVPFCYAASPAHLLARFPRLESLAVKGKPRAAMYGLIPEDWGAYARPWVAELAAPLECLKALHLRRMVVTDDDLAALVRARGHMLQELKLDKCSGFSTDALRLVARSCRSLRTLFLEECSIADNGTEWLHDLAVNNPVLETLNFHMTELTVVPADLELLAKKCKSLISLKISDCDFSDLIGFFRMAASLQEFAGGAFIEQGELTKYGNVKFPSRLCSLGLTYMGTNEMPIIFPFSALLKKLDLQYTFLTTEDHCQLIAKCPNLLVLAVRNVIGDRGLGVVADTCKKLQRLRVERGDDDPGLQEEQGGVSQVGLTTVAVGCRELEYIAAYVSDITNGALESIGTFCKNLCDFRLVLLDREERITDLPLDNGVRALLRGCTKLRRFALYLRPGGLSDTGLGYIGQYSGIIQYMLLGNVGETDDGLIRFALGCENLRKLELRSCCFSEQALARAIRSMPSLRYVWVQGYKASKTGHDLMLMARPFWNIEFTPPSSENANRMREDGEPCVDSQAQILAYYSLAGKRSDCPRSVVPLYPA
Briefly: pull-down.

B1: His6-OSK1^S53D (natural protein, rice, UniProt Q6PL11 1-173, looked up)
chain: MAAEGEKKMITLKSSDGEEFEVEEAVAMESQTIRHMIEDDCADNGIPLPNVNDKILSKVIEYCNKHVHAAAAAASKAADDAASAAAAVPPPSGEDLKNWDADFVKVDQATLFDLILAANYLNIKGLLDLTCQTVADMIKGKTPEEIRKTFNIKNDFTPEEEEEIRRENQWAFE
In the assay with His6-TF-SUMO-OsCOI1b, B1 showed a dissociation constant Kd of 12.7 nM.

B2: His6-OSK1 (natural protein, rice, UniProt Q6PL11 1-173, looked up)
chain: MAAEGEKKMITLKSSDGEEFEVEEAVAMESQTIRHMIEDDCADNGIPLPNVNSKILSKVIEYCNKHVHAAAAAASKAADDAASAAAAVPPPSGEDLKNWDADFVKVDQATLFDLILAANYLNIKGLLDLTCQTVADMIKGKTPEEIRKTFNIKNDFTPEEEEEIRRENQWAFE
As for B2, in the assay with His6-TF-SUMO-OsCOI1b, the Kd came out at 53.8 nM. This Kd lies about 4.2-fold higher than the previous one.

B3: GST-OSK1 (natural protein, rice, UniProt Q6PL11 1-173, looked up)
chain: MAAEGEKKMITLKSSDGEEFEVEEAVAMESQTIRHMIEDDCADNGIPLPNVNSKILSKVIEYCNKHVHAAAAAASKAADDAASAAAAVPPPSGEDLKNWDADFVKVDQATLFDLILAANYLNIKGLLDLTCQTVADMIKGKTPEEIRKTFNIKNDFTPEEEEEIRRENQWAFE
notes: not shown: GST, N-terminal, kept
B3: the binding result in assay [1], in assay [2] and in assay [3] was “binds” in each case.

B4: GST-OSK1^S53D (natural protein, rice, UniProt Q6PL11 1-173, looked up)
chain: MAAEGEKKMITLKSSDGEEFEVEEAVAMESQTIRHMIEDDCADNGIPLPNVNDKILSKVIEYCNKHVHAAAAAASKAADDAASAAAAVPPPSGEDLKNWDADFVKVDQATLFDLILAANYLNIKGLLDLTCQTVADMIKGKTPEEIRKTFNIKNDFTPEEEEEIRRENQWAFE
notes: as for B3
Turning to B4, the binding result in assay [1], in assay [2] and in assay [3] was “binds” in each case.

Source of the values: publication PMC8445998 (Nature Communications, 2021).
